Target: P22 coat protein (CP) monomers (bacteriophage P22, UniProt P26747 1-430)
Test: SEC

P22 coat protein (CP) monomers, sequence (P26747 whole entry): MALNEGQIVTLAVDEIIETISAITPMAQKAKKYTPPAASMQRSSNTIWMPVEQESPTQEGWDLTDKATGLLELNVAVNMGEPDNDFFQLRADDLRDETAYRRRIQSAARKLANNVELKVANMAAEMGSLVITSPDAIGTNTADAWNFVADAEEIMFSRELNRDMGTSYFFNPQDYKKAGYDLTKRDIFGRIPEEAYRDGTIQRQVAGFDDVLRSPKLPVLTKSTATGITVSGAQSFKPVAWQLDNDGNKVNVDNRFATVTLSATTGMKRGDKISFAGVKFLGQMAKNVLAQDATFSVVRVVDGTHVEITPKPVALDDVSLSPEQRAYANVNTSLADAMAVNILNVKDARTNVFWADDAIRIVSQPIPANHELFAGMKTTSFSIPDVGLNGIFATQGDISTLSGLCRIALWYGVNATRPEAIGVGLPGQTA

B1: P22 scaffolding protein (SP) (natural protein, bacteriophage P22, UniProt P26748 1-303, looked up)
chain: MEPTTEIQATEDLTLSGDHAAASADSLVVDNANDNAGQEEGFEIVLKDDETAPKQDPAKNAEFARRRIERKRQRELEQQMEAVKRGELPESLRVNPDLPPQPDINAYLSEEGLAKYDYDNSRALAAFNAANTEWLMKAQDARSNAVAEQGRKTQEFTQQSAQYVEAARKHYDAAEKLNIPDYQEKEDAFMQLVPPAVGADIMRLFPEKSAALMYHLGANPEKARQLLAMDGQSALIELTRLSERLTLKPRGKQISSAPPADQPITGDVSAANKDAIRKQMDAAASKGDVETYRKLKAKLKGIR
B1: binds.

— PMC5529062 (Science Advances, 2017)
